B2: human Ev1 protein (NCBI accession No. AAF21709) (other, UniProt Q9UI08-2 1-418, looked up)
chain: MATSEQSICQARASVMVYDDTSKKWVPIKPGQQGFSRINIYHNTASNTFRVVGVKLQDQQVVINYSIVKGLKYNQATPTFHQWRDARQVYGLNFASKEEATTFSNAMLFALNIMNSQEGGPSSQRQVQNGPSPDEMDIQRRQVMEQHQQQRQESLERRTSATGPILPPGHPSSAASAPVSCSGPPPPPPPPVPPPPTGATPPPPPPLPAGGAQGSSHDESSMSGLAAAIAGAKLRRVQRPEDASGGSSPSGTSKSDANRASSGGGGGGLMEEMNKLLAKRRKAASQSDKPAEKKEDESQMEDPSTSPSPGTRAASQPPNSSEAGRKPWERSNSVEKPVSSILSRTPSVAKSPEAKSPLQSQPHSRMKPAGSVNDMALDAFDLDRMKQEILEEVVRELHKVKEEIIDAIRQELSGISTT
notes: range 1-418; His tag removed by thrombin; By gel filtration it eluted at approximately 600 kDa (approximately 13-mer multimer); In the pull-down it was either coupled covalently to Affi-Gel 10 beads or free in solution; also called entire-length Ev1 protein; His-Ev1 (before the tag was removed)

Tests used:
[1] = target: B2; test: pull-down, Ev1 coupled to Affi-Gel 10 beads, SDS-PAGE, Coomassie stain
Description: Thereafter, the obtained mixture was incubated at 4° C. overnight. The Affi-Gel 10-Ev1 beads were washed 3 times with 500 μl of washing buffer 1 (20 mM potassium phosphate (pH 8.5), 30% glycerol, 700 mM NaCl, 5 mM 2-mercaptoethanol, and 0.05% Triton X-100). The Affi-Gel 10-Rad51B beads were washed 3 times with washing buffer 2 (20 mM HEPES-NaOH (pH 7.3), 30% glycerol, 90 mM NaCl, 2 mM 2-mercaptoethanol, 0.1% Triton X-100, 2 mM ammonium sulfate, and 0.1 mM EDTA). Thereafter, a 50% suspension of such Affi-Gel 10-protein was prepared, and it was then preserved at 4° C.
In order to carry out a binding assay, an Affi-Gel 10-protein suspension (30 μl) was incubated with 10 μg of an Ev1 or Rad51B protein at room temperature for 150 minutes. Affi-Gel 10-Ev1 beads were washed 4 times with 100 μl of buffer 1 (20 mM potassium phosphate (pH 8.5), 30% glycerol, 700 mM NaCl, 5 mM 2-mercaptoethanol, and 0.3% Triton X-100). Affi-Gel 10-Rad51B beads were washed 4 times with 100 μl of buffer 2 (20 mM HEPES-NaOH (pH 7.3), 30% glycerol, 90 mM NaCl, 2 mM 2-mercaptoethanol, 2 mM ammonium sulfate, 0.1 mM EDTA, and 0.35% Triton X-100). An SDS-PAGE sample treatment buffer (2×) was directly mixed with the washed beads, and the obtained mixture was then subjected to a heat treatment at 100° C. for 2 minutes. […]

[2] = target: the molecule itself; test: inferred from the pull-down on Rad51B-bound beads; gel filtration (approximately 600 kDa)

B1: Rad51B protein (other, UniProt O15315-1 1-350, looked up)
chain: MGSKKLKRVGLSQELCDRLSRHQILTCQDFLCLSPLELMKVTGLSYRGVHELLCMVSRACAPKMQTAYGIKAQRSADFSPAFLSTTLSALDEALHGGVACGSLTEITGPPGCGKTQFCIMMSILATLPTNMGGLEGAVVYIDTESAFSAERLVEIAESRFPRYFNTEEKLLLTSSKVHLYRELTCDEVLQRIESLEEEIISKGIKLVILDSVASVVRKEFDAQLQGNLKERNKFLAREASSLKYLAEEFSIPVILTNQITTHLSGALASQADLVSPADDLSLSEGTSGSSCVIAALGNTWSHSVNTRLILQYLDSERRQILIAKSPLAPFTSFVYTIKEEGLVLQAYGNS
notes: In the pull-down it was either coupled to Affi-Gel 10 beads or free in solution
- stoichiometric ratio [1]: 1 Rad51B:Ev1 (1:1)

Binder: B2
- binding result [2]: binds
